To fix the notation:
B1: IgG-Fc-13 (VHH)
VHH: QVQLQESGGGLVQAGGSLRLSCAASGDTFSTYAMGWFRQAPGKEREFVGRIVRGTESTYLIDSVKGRFAISRDNAQNTVYLQMTSLKPEDTAVYFCVARSFGAGQWDYWGQGTQVTVSS
B2: IgG-Fc-15 (VHH)
VHH: QVQLQESGGGLVQAGGSLRLSCAVSGRGFSTYAMGWFRQAPGKEREFVGSANWKSGSIYVADSVKGRFTISNDNAQNTVYLQMSSLKPEDTAVYYCVARSFGTGQWDYWGQGTQVTVSS
B3: IgG-Fc-11 (VHH)
VHH: QVQLQESGGGLVQAGGSLRLSCAVSGRTFSTYAMGWFRQAPGKEREFVGSANWKSGSTYLVDSVKGRFTISGDNAHDTVHLQMTSLKPEDTGVYFCVARSFGTGQWDYWGQGTQVTVSS
B4: IgG-Fc-12 (VHH)
VHH: QVQLQESGGGLVQAGGSLRLSCAVSGRTFSTYAMGWFRQAPGKEREFVGSINFKSGSIYLADSVKGRFTISGDNAQNTAYLQMTSLKPEDTAVYLCVARSFGTGQWDYWGQGTQVTVSS
B5: IgG-Fc-14 (VHH)
VHH: QVQLQESGGGLVQTGGSLRLSCSASGGTFETYAMGWFRQAPGKEREFVGSTNWKSERTYVADSVKGRFTISRDNGQYTAYLQMTSLKPEDTAVYFCVARSFGTGQWDYWGQGTQVTVSS

The experiment has as its target Human IgG. Description: method not given.
As for B1, the Ka was greater than 4e+09 M⁻¹. The value for B2 was greater than 4e+09 M⁻¹; that for B3 was greater than 4e+09 M⁻¹; that for B4 was greater than 4e+09 M⁻¹. The value for B5 was greater than 4e+09 M⁻¹.

The values are drawn from patent publication US20150307627A1.
